For one assay, the target named is T1, human CD4 (human, UniProt P01730 26-458).
T1 construct: whole, on cells; Tested on transfected L-cells by FACS and also by BiaCore
The assay can be described thus: BiaCore (SPR).

In assay [1] the target is T2, human LAG3 (Lymphocyte Activation Gene-3) expressed on cells (human, UniProt P18627 23-525).
T2 construct: also called hLAG3; CD223
T2 sequence: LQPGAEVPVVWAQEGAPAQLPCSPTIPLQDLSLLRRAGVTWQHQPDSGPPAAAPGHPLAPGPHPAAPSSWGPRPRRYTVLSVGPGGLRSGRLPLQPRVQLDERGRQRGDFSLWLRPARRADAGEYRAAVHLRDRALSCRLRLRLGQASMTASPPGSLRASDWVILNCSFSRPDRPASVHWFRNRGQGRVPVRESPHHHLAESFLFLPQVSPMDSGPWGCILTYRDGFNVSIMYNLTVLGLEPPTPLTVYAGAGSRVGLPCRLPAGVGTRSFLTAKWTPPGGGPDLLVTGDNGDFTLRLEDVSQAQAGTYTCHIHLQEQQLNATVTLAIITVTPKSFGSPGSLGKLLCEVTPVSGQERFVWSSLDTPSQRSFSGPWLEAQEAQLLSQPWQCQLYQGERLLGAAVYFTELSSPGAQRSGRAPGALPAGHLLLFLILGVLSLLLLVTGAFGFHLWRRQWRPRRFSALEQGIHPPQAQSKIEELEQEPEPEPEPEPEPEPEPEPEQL
Briefly: flow cytometry, PHA-activated human CD4+ T cells (3 donors). Here is the method:
(§1) Binding of LAG-3 mAb clones to primary T-cells was assessed using human and cynomolgous monkey (cyno) peripheral blood mononuclear cells (PBMC). Human blood was obtained from the local donors; cyno blood was obtained from Bioreclamation. PBMC were isolated from the whole blood using Ficoll-Paque Plus (GE Healthcare, Cat# 17-1440-03) density gradient centrifugation at 524×g for 40 minutes. PBMC were collected from the medium:plasma interface and washed 2 times with phosphate buffered saline (PBS). The residual red blood cells were lysed using ammonium-chloride-potassium red blood cell lysing solution (ACK, GIBCO, cat# A10492-010). Cynomolgus monkey or human PBMC (3×10⁶/ml) were stimulated with 4 μg/ml PHA (Sigma, L2769) for 48 h and 20 h, respectively. For flow cytometric analysis, 1×10⁶ PHA-activated PBMCs were used per staining in 50 μl FACS staining buffer (BD, cat# 554657). LAG-3 mAb clones or correspondent isotype controls were incubated with human or cyno PBMS followed by detection using goat anti-mouse IgG-PE (BD 550589). […] Sample acquisition was performed on an LSR II flow cytometer and the data were analyzed using FlowJo software version 10.0.6 (Tree Star, Inc.).
(§2) The data represent 3 human and 3 cynomolgus donors after stimulation with 4 ug/ml of PHA for 40 hours prior to staining.

In assay [2] the target is T2, human LAG3 (Lymphocyte Activation …). Briefly: flow cytometry, PHA-activated human CD8+ T cells (3 donors). The method, then:
as §1, §2

Assay [3] shares this target. Briefly: cell based KinExA, BaF/3 cells transfected with human LAG3 (n=3). The method, then:
The affinities of the LAG3 antibodies for LAG3 were determined using a cell based Kinetic Exclusion Assay (KinExA). Cell based KinExA can be used to measure the affinity of a molecule for a binding partner on a cell surface (Rathanaswami et al. Analylitical Biochemistry 373(1): 52-60 (2008); Xie et al. J. Immunol. Methods 304 (1-2): 1-14 (2005)). In this case, BaF/3 cells were stably transfected with human and cynomolgus monkey LAG3 proteins. Transfected cells or the parental BaF/3 control cell line were grown to a density of 1.7×10⁶ to 3.2×10⁶ cells per ml at 37° C., 120 RPM, 5% CO₂, in 1X RPMI 1640 media with 10% FBS, 10 ng/ml IL-3, 5 μg/ml puromycin. Cells were concentrated, mixed with 15 pM or 150 pM antibody in cell culture media and incubated 24 to 48 hours at room temperature while rotating at 20 to 30 RPM. Cells were present at a top concentration of 2×10⁷ cells per ml (parental BaF/3 or cynomolgus LAG3 transfectants) or 1×10⁷ cells per ml (human LAG3 transfectants) and diluted in a 2-fold, 18 member series. The cells were pelleted and free antibody in the supernatant was measured using a KinExA 3200 instrument (Sapidyne, Id., USA). […] Antibody on the beads was labeled with 1.5 μg/ml Alexa Fluor® 647 conjugated goat anti-human (Fab′)₂ (Jackson ImmunoResearch Laboratories), washed and the fluorescent signal was read all using the KinExA™ 3200. […]

For assay [4], the target named is T3, human LAG3-huFc recombinant protein (human, UniProt P18627 23-450, limits assumed, biotinylated in the runs with humanized and chimeric antibodies (Example 11)).
T3 construct: also called human LAG3-Fc; huLAG3-huFc; not shown: human Fc
T3 sequence: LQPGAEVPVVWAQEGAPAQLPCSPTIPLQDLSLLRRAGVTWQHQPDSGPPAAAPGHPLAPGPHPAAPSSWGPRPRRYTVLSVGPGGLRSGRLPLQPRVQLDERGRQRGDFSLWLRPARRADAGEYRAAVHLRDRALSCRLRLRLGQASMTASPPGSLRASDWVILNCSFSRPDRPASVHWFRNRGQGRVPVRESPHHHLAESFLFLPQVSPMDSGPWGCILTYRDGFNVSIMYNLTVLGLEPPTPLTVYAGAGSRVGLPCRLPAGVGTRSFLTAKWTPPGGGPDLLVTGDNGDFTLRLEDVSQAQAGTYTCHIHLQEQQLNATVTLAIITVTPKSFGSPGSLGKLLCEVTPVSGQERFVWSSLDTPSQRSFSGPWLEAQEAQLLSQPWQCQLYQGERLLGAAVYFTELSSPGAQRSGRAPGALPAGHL
Briefly: flow cytometry, blockade of biotinylated human LAG3-huFc binding to MHC class II on Daudi cells, streptavidin-PE. The method, then: Mouse anti-human LAG3 and humanized anti-LAG3 clones were tested for their ability to block hLAG3 interaction with human MHC Class II. Daudi cells (ATCC #CCL-213) were used as a cell line positive for human MHC class II expression. Daudi cells were blocked with 10 ug/ml of goat IgG in HBSS and 2% BCS on ice for 30 minutes and 0.5×10⁶ cells/sample were aliquoted into a 96-well V-bottom plate and blocking buffer removed. […] Cells were pelleted by centrifugation at 1200 rpm and washed twice with HBSS/2% BCS. […] Cells were washed twice as described above, resuspended in HBSS/2% BCS and read on the FACSCalibur.

For assay [5], the target named is T2, human LAG3 (Lymphocyte Activation …). Briefly: cell based KinExA, BaF/3 cells transfected with human LAG3 (n=2). The method, then:
The affinities of the LAG3 antibodies for LAG3 were determined using a cell based Kinetic Exclusion Assay (KinExA). Cell based KinExA can be used to measure the affinity of a molecule for a binding partner on a cell surface (Rathanaswami et al. Analylitical Biochemistry 373(1): 52-60 (2008); Xie et al. J. Immunol. Methods 304 (1-2): 1-14 (2005)). In this case, BaF/3 cells were stably transfected with human and cynomolgus monkey LAG3 proteins. Transfected cells or the parental BaF/3 control cell line were grown to a density of 1.7×10⁶ to 3.2×10⁶ cells per ml at 37° C., 120 RPM, 5% CO₂, in 1X RPMI 1640 media with 10% FBS, 10 ng/ml IL-3, 5 μg/ml puromycin. Cells were concentrated, mixed with 15 pM or 150 pM antibody in cell culture media and incubated 24 to 48 hours at room temperature while rotating at 20 to 30 RPM. Cells were present at a top concentration of 2×10⁷ cells per ml (parental BaF/3 or cynomolgus LAG3 transfectants) or 1×10⁷ cells per ml (human LAG3 transfectants) and diluted in a 2-fold, 18 member series. The cells were pelleted and free antibody in the supernatant was measured using a KinExA 3200 instrument (Sapidyne, Id., USA). […] Antibody on the beads was labeled with 1.5 μg/ml Alexa Fluor® 647 conjugated goat anti-human (Fab′)₂ (Jackson ImmunoResearch Laboratories), washed and the fluorescent signal was read all using the KinExA™ 3200. The data from the 15 pM and 150 pM concentrations of each antibody were fit simultaneously using KinExA™ Pro n-Curve Analysis software version 4.0.11 (Sapidyne).

B1: Ab6: humanized light chain 45AGX Humanized x[LAG3_H] mAb (LB145.22D2.E1.D1 (VL3)) Kappa (PX) and humanized heavy chain 73AHD Humanized x[LAG3_H] mAb … (antibody)
heavy: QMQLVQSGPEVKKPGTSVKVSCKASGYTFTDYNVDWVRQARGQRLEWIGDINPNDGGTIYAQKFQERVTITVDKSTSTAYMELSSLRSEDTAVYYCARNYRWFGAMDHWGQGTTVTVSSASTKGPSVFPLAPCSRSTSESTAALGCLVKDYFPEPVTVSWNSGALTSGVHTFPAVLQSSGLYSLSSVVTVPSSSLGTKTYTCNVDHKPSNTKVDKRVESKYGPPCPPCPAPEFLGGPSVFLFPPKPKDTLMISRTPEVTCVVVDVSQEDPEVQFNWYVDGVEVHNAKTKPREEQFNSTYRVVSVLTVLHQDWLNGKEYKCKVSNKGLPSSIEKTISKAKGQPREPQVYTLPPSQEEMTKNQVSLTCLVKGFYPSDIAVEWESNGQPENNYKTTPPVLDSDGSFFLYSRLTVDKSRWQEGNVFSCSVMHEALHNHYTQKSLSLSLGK
light: DIVMTQTPLSLSVTPGQPASISCKASQSLDYEGDSDMNWYLQKPGQPPQLLIYGASNLESGVPDRFSGSGSGTDFTLKISRVEAEDVGVYYCQQSTEDPRTFGGGTKVEIKRTVAAPSVFIFPPSDEQLKSGTASVVCLLNNFYPREAKVQWKVDNALQSGNSQESVTEQDSKDSTYSLSSTLTLSKADYEKHKVYACEVTHQGLSSPVTKSFNRGEC
notes: Humanized 22D2 N55D, IgG4 S228P/kappa; also called Hu22D2 VH6/VL3 N55D (Ab 6); hu22D2 VH6/VL3 N55D
In the case of B1, in the assay with human CD4, the binding result is “no binding”. The EC50 in assay [1] is 0.039 nM; in assay [2], 0.033 nM. For the same molecule, binding in assay [3] was put at a Kd of 0.002 nM. Besides, the IC50 in assay [4] came out at 2.4 nM.

B2: Ab8: humanized light chain 45AGX Humanized x[LAG3_H] mAb (LB145.22D2.E1.D1 (VL3)) Kappa (PX) and humanized heavy chain 80AHG Humanized x[LAG3_H] mAb … (antibody)
heavy: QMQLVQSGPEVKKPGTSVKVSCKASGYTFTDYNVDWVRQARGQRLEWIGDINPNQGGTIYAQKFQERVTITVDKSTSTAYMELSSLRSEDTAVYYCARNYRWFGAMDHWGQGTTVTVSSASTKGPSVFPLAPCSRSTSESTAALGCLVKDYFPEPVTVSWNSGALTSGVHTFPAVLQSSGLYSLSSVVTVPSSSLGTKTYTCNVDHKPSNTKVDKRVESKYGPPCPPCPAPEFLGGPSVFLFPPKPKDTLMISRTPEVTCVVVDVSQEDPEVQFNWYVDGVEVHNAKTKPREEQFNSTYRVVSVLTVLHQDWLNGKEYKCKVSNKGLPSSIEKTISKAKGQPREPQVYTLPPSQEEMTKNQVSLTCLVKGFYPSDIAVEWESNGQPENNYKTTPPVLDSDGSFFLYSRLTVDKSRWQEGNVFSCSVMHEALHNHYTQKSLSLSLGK
light: B1 light
notes: Humanized 22D2 N55Q, IgG4 S228P/kappa; also called Hu22D2 VH6/VL3 N55Q (Ab 8); hu22D2 VH6/VL3 N55Q
Take B2: the values for the EC50 in assay [1] and in assay [2] were 0.041 nM and 0.035 nM, respectively. The molecule further came in with a Kd in assay [5] of 0.011 nM. Also, the IC50 in assay [4] is 2.5 nM.

B3: Ab7: humanized light chain 45AGX Humanized x[LAG3_H] mAb (LB145.22D2.E1.D1 (VL3)) Kappa (PX) and humanized heavy chain 21AHG Humanized x[LAG3_H] mAb … (antibody)
heavy: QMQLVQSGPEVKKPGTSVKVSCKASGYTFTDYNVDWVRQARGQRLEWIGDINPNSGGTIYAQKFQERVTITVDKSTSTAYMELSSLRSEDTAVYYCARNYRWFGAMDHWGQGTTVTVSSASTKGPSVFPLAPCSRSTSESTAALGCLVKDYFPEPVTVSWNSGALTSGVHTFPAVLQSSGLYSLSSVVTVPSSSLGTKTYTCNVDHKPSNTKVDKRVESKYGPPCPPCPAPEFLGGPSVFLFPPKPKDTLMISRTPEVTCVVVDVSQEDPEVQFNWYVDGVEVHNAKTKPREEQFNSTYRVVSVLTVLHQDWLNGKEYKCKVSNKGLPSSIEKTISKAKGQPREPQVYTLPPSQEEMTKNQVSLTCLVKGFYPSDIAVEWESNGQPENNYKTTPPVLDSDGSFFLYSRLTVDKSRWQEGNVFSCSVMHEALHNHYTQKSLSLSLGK
light: B1 light
notes: Humanized 22D2 N55S, IgG4 S228P/kappa; also called Hu22D2 VH6/VL3 N55S (Ab 7); hu22D2 VH6/VL3 N55S
Regarding B3, the EC50 in assay [1] is 0.057 nM; in assay [2], 0.049 nM. In assay [5], this molecule had a Kd of 0.01 nM. Besides, the IC50 in assay [4] amounted to 2.1 nM.

The record behind these values is patent US20190083615A1 (Merck Sharp & Dohme, published 2019).
